Numbered stars: 1 amine (or outer) side, 2 acyl side, 3 side chain; on linkers, the order of the positions; unused ones are H or OH. * marks the point of attachment. C20 diacid = O=C(O)CCCCCCCCCCCCCCCCCCC(=O)*; γGlu = O=C(O)[C@H](CCC(=O)[*:2])N[*:1]
Key:
[1] = target: T1, human amylin receptor (human calcitonin receptor + human RAMP3) (human) (UniProt P30988); assay: whole-cell competition vs 125I-rat amylin (Assay Va)
T1 sequence (looked up) 1: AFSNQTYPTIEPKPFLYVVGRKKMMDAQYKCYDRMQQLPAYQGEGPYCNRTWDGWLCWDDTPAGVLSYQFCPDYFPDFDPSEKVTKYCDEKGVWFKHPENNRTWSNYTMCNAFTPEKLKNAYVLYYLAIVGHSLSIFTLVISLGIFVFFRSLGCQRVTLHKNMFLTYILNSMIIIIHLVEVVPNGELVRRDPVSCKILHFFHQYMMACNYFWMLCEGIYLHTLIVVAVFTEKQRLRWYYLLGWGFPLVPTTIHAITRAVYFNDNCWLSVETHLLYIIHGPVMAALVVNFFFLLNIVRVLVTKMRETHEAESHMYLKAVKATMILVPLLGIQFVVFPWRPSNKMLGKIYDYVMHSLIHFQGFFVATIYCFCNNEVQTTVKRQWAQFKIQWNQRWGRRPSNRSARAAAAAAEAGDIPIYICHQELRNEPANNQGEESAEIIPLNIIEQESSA
T1 sequence (looked up) 2: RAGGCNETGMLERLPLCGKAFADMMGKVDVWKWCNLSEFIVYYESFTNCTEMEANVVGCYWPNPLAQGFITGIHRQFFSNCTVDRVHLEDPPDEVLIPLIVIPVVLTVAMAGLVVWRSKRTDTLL

[2] = target: rat calcitonin receptor (rat) (UniProt P32214); assay: SPA competition vs 125I-calcitonin, membranes with rat CTR (Assay VIII)
[3] = target: rat amylin receptor (rat calcitonin receptor with rat RAMP 3) (rat) (UniProt P32214); assay: SPA competition vs 125I-rat amylin, membranes with rat CTR + rat RAMP3 (Assay VI)

B1: [N-terminal(C20 diacid-gGlu), 1A, 23Y, 30S, 31G]mimylin (peptide)
peptide: {C20 diacid-γGlu}-AASELSTAALGRLSAELHELATYPRTETGSGSP-NH2
SMILES: CC(C)C[C@H](NC(=O)[C@H](C)NC(=O)[C@H](C)NC(=O)[C@@H](NC(=O)[C@H](CO)NC(=O)[C@H](CC(C)C)NC(=O)[C@H](CCC(=O)O)NC(=O)[C@H](CO)NC(=O)[C@H](C)NC(=O)[C@H](C)NC(=O)CC[C@H](NC(=O)CCCCCCCCCCCCCCCCCCC(=O)O)C(=O)O)[C@@H](C)O)C(=O)NCC(=O)N[C@@H](CCCNC(=N)N)C(=O)N[C@@H](CC(C)C)C(=O)N[C@@H](CO)C(=O)N[C@@H](C)C(=O)N[C@@H](CCC(=O)O)C(=O)N[C@@H](CC(C)C)C(=O)N[C@@H](Cc1c[nH]cn1)C(=O)N[C@@H](CCC(=O)O)C(=O)N[C@@H](CC(C)C)C(=O)N[C@@H](C)C(=O)N[C@H](C(=O)N[C@@H](Cc1ccc(O)cc1)C(=O)N1CCC[C@H]1C(=O)N[C@@H](CCCNC(=N)N)C(=O)N[C@H](C(=O)N[C@@H](CCC(=O)O)C(=O)N[C@H](C(=O)NCC(=O)N[C@@H](CO)C(=O)NCC(=O)N[C@@H](CO)C(=O)N1CCC[C@H]1C(N)=O)[C@@H](C)O)[C@@H](C)O)[C@@H](C)O
Question: How did the IC50 [1] turn out when B1 was run?
Answer: 1.23 nM

Question: What about the IC50 [2] of the same binder?
Answer: 0.044 nM

Question: What about the IC50 [3] of the same binder?
Answer: 0.025 nM

B2: [N-terminal(C20 diacid-gGlu), des1, 30S, 31G, 33H]mimylin (peptide)
peptide: {C20 diacid-γGlu}-ASELSTAALGRLSAELHELATLPRTETGSGSH-NH2
SMILES: CC(C)C[C@H](NC(=O)[C@H](C)NC(=O)[C@H](C)NC(=O)[C@@H](NC(=O)[C@H](CO)NC(=O)[C@H](CC(C)C)NC(=O)[C@H](CCC(=O)O)NC(=O)[C@H](CO)NC(=O)[C@H](C)NC(=O)CC[C@H](NC(=O)CCCCCCCCCCCCCCCCCCC(=O)O)C(=O)O)[C@@H](C)O)C(=O)NCC(=O)N[C@@H](CCCNC(=N)N)C(=O)N[C@@H](CC(C)C)C(=O)N[C@@H](CO)C(=O)N[C@@H](C)C(=O)N[C@@H](CCC(=O)O)C(=O)N[C@@H](CC(C)C)C(=O)N[C@@H](Cc1c[nH]cn1)C(=O)N[C@@H](CCC(=O)O)C(=O)N[C@@H](CC(C)C)C(=O)N[C@@H](C)C(=O)N[C@H](C(=O)N[C@@H](CC(C)C)C(=O)N1CCC[C@H]1C(=O)N[C@@H](CCCNC(=N)N)C(=O)N[C@H](C(=O)N[C@@H](CCC(=O)O)C(=O)N[C@H](C(=O)NCC(=O)N[C@@H](CO)C(=O)NCC(=O)N[C@@H](CO)C(=O)N[C@@H](Cc1c[nH]cn1)C(N)=O)[C@@H](C)O)[C@@H](C)O)[C@@H](C)O
Question: What does the source list for B2?
Answer: IC50 [1]: 1.07 nM; IC50 [2]: 0.02 nM; IC50 [3]: 0.046 nM

Question: What does the source list for {C20 diacid-γGlu}-ASELSTAALGHLSAELHELATLPRTETGSGSP-NH2 [[N-terminal(C20 diacid-gGlu), des1, 12H, 30S, 31G]mimylin]?
Answer: IC50 [1]: 0.697 nM; IC50 [2]: 0.085 nM; IC50 [3]: 1.53 nM

B3: [N-terminal(C20 diacid-gGlu), des1, 23Y, 30S, 31G]mimylin (peptide)
peptide: {C20 diacid-γGlu}-ASELSTAALGRLSAELHELATYPRTETGSGSP-NH2
SMILES: CC(C)C[C@H](NC(=O)[C@H](C)NC(=O)[C@H](C)NC(=O)[C@@H](NC(=O)[C@H](CO)NC(=O)[C@H](CC(C)C)NC(=O)[C@H](CCC(=O)O)NC(=O)[C@H](CO)NC(=O)[C@H](C)NC(=O)CC[C@H](NC(=O)CCCCCCCCCCCCCCCCCCC(=O)O)C(=O)O)[C@@H](C)O)C(=O)NCC(=O)N[C@@H](CCCNC(=N)N)C(=O)N[C@@H](CC(C)C)C(=O)N[C@@H](CO)C(=O)N[C@@H](C)C(=O)N[C@@H](CCC(=O)O)C(=O)N[C@@H](CC(C)C)C(=O)N[C@@H](Cc1c[nH]cn1)C(=O)N[C@@H](CCC(=O)O)C(=O)N[C@@H](CC(C)C)C(=O)N[C@@H](C)C(=O)N[C@H](C(=O)N[C@@H](Cc1ccc(O)cc1)C(=O)N1CCC[C@H]1C(=O)N[C@@H](CCCNC(=N)N)C(=O)N[C@H](C(=O)N[C@@H](CCC(=O)O)C(=O)N[C@H](C(=O)NCC(=O)N[C@@H](CO)C(=O)NCC(=O)N[C@@H](CO)C(=O)N1CCC[C@H]1C(N)=O)[C@@H](C)O)[C@@H](C)O)[C@@H](C)O
Question: Which IC50 [1] does the source give for B3 here?
Answer: 2.61 nM

Question: What about the IC50 [2] of the same binder?
Answer: 0.202 nM

Question: And the IC50 [3]?
Answer: 3.99 nM
